Source: the RNAGym collection of RNA variant scans (doi:10.1073/pnas.2313332121)

B1: TPR t1 (parent)
chain: GACCAAUCUGCCCUCAGAGCUCGAGAACAUCUUCGGAUGCAGAGGAGGCAGGCUUCGGUGGCGCGAUAGCGCCAACGUCCUCAACCUCCAAUGCAUCCCACCACAUGAUGAUGCCUGAAGAGCCUUGGUUUUUUG

Variants of: B1
Experiment: polymerase ribozyme fitness, log enrichment relative to wild type (log ratio); higher = more active; in vitro selection for triplet polymerase activity
In short: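 For each subunit of a heterodimeric triplet polymerase ribozyme, a mutant library was built by PCR and transcribed, then taken through a single in vitro selection round in triplicate. Selection involved annealing to a biotinylated primer, the partner subunit and triplets, incubation frozen at −7 °C, gel excision of extended constructs, capture on streptavidin beads and RT-PCR. Genotypes were retained after Illumina sequencing of inputs and outputs only with ≥10 input reads and ≥1 read in each output. Fitness is defined as the logarithm of a genotype's enrichment relative to wild-type enrichment, using inverse-variance-weighted averages across replicates, with the logarithm taken to base 2.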

Variant	polymerase ribozyme fitness (log ratio)
GACCAAUCUGCCCUCAGAGCUCGAGAACAUCUUCGGAUGCAGAGGAGGCAGGCUUCGGUGUCGCGAUAGCGCCAACGUCCUCAACCUCCAAUGGAUCCCACCACAUGAUGAUGCCUGAAGAGCCUUGGUUUUUUG	-0.934
GACCAAUCUGCCCUCAGAGCUCGAGAACAUCUUCGGAUGCAGAGGAGGCAGGCUUCGGUGCCGCGAUAGCGCCAACGUCCUCAACCACCAAUGCAUCCCACCACAUGAUGAUGCCUGAAGAGCCUUGGUUUUUUG	-1.83
GACCAAUCUGCCCUCAGAGCUCGAGAACAUCUUCGGAUGCAGAGGAGGCAGGCUUCGGUGCCGCGAUAGCGCCAACGUCCUCAACCUCCAAUGCAUCCCACCACAUGAUGAUGCCUGAAGAGCCUUGGAUUUUUG	-3.33
GACCAAUCUGCCCUCAGAGCUCGAGAACAUCUUCGGAUGCAGAGGAGGCAGGCUUCGGUGCCGCGAUAGCGCCAACGUCCUCAACCUCCAAUGCAUCCCACCACAUGAUGAUGCCUGAAAAGCCUUGGUUUUUUG	0.0588
GACCAAUCUGCCCUCAGAGCUCGAGAACAUCUUCGGAUGCAGAGGAGGCAGGCUUCGGUGCCGCGAUAGCGCCAACGUCCUCAACCUCCAAUGCAUCCCACCACAUGAUGAUGCCUGAAGAGCCUUGAUUUUUUG	-3.41
GACCAAUCUGCCCUCAGAGCUCGAGAACAUCUUCGGAUGCAGAGGAGGCAGGCUUCGGUGCCGCGAUAGCGCCAACGUCCUCAACCUCCAAUGCAUCCCACCACAUGAUGAUGCCUGAAGAGCCUUGUUUUUUUG	-3.46
GACCAAUCUGCCCUCAGAGCUCGAGAACAUCUUCGGAUGCAGAGGAGGCAGGCUUCGGUGCCGCGAUAGCGCCAACGUCCUCAACCUCAAAUGCAUCCCACCACAUGAUGAUGCCUGAAGGGCCUUGGUUUUUUG	-2.4
GACCAAUCUGCCCUCAGAGCUCGAGAACAUCUUCGGAUGCAGAGGAGGCAGGCUUCGGUGUCGCGAUAGCGCCAACGUCCUCAACCUCCAAUGUAUCCCACCACAUGAUGAAGCGUGAAGAGCCUUGGUUUUUUG	-0.199
GACCAAUCUGCCCUCAGAGCUCGAGAACAUCUUCGGAUGCAGAGGAGGCAGGCUUCGGUGCCGCGAUAGCGCCAACGUCCUCAACCUCCAAUGCAUCCCACCACAUAAUGAUGCCUGAAGAGCCUUGGUUUUUUG	-6.66
GACCAAUCUGCCCUCAGAGCUCGAGAACAUCUUCGGAUGCAGAGGAGGCAGGCUUCGGUGUCGCGAUAGCGCCAACGUCCUCCACCUCGAAUGCAUCCCACCACAUGAUGAUGCCUGAAGAGCCUUGGUUUUUUG	-1.83
GACCAAUCUGCCCUCAGAGCUCGAGAACAUCUUCGGAUGCAGAGGAGGCAGGCUUCGGUGCCGCGAUAGCGCCAACGUCCUCAACCUCCAAUGCAUCCCAGCACAUGAUGACGCCUGAAGAGCCUUGGUUUUUUG	-2.46
GACCAAUCUGCCCUCAGAGCUCGAGAACAUCUUCGGAUGCAGAGGAGGCAGGCUUCGGUGUCGCGAUAGCGCCAACGUCCUCAACCUCCAAUGCAUCCCACCACAUGAUGAUGCCUGAAGUGCCUUGGUUUUUUG	1.48
GACCAAUCUGCCCUCAGAGCUCGAGAACAUCUUCGGAUGCAGAGGAGGCAGGCUUCGGUGUCGCGAUAGCGCCAACGUCCUCAACCUCCAAUGCAUACCCCCACAUGAUGAUGCCUGAAGAGCCUUGGUUUUUUG	-3.32
GACCAAUCUGCCCUCAGAGCUCGAGAACAUCUUCGGAUGCAGAGGAGGCAGGCUUCGGUGCCGCGAUAGCGCCAACGUCCUCAACCUCAAAUGCAUCCCACCACAUGAUGAUGCCUGAAGAGCCUUGGUUUUUUG	-3.5
GACCAAUCUGCCCUCAGAGCUCGAGAACAUCUUCGGAUGCAGAGGAGGCAGGCUUCGGUGUCGCGAUAGCGCCAACGUCCUGAACCUCCAAUGUAUCCCACCACAUGAUGAUGCCUGAAGAGCCUUGGUUUUUUG	-0.714
GACCAAUCUGCCCUCAGAGCUCGAGAACAUCUUCGGAUGCAGAGGAGGCAGGCUUCGGUGCCGCGAUAGCGCCAACGUCCUCAACCUCCAAUGCAUCCCACCACACGAUGAUGCCUGAAGAGCCUUGGUUUUUUG	-2.89
GACCAAUCUGCCCUCAGAGCUCGAGAACAUCUUCGGAUGCAGAGGAGGCAGGCUUCGGUGUCGCGAUAGCGCCAACGUACUCAACCUCCAAUGCAUCCCACCACAUGAUGAUGCCUGAAGAGCCUUGGUUUUUUG	-0.952
GACCAAUCUGCCCUCAGAGCUCGAGAACAUCUUCGGAUGCAGAGGAGGCAGGCUUCGGUGUCGCGAUAGCGCCAACGUCCUCAACCUCCAAUGCAUCCCACCACAUGAUUAUGCCUGAAGAGCCUUGGUUUUUUG	-0.117
GACCAAUCUGCCCUCAGAGCUCGAGAACAUCUUCGGAUGCAGAGGAGGCAGGCUUCGGUGUCGCGAUAGCGCCAACGUCCUCAACCUCCAAUGCAUCCCACCACAUGAUCAUGCCUGAAGAGCCUUGGUUUUUUG	-2.85
GACCAAUCUGCCCUCAGAGCUCGAGAACAUCUUCGGAUGCAGAGGAGGCAGGCUUCGGUGUCGCGAUAGCGCCAACGUCCUCAACCUCCAAUGCAUCCAACCACAUGAUGAUGCAUGAAGAGCAUUGGUUUUUUG	-4.46
GACCAAUCUGCCCUCAGAGCUCGAGAACAUCUUCGGAUGCAGAGGAGGCAGGCUUCGGUGCCGCGAUAGCGCCAACGUCCUCAACCACCAAUGCAUCCCACAACAUGAUGAUGCCUGAAGAGCCUUGGUUUUUUG	-5.28

Variant	polymerase ribozyme fitness (log ratio)
GACCAAUCUGCCCUCAGAGCUCGAGAACAUCUUCGGAUGCAGAGGAGGCAGGCUUCGGUGUCGCGAUAGCGCCAACGUCAUCAACCUCCAAUGCAUCCCACCACAUGAUGAUGCCUGAAGAGCCUUGGUUUUUUG	-2.59
GACCAAUCUGCCCUCAGAGCUCGAGAACAUCUUCGGAUGCAGAGGAGGCAGGCUUCGGUGCCGCGAUAGCGCCAACGUCCUCAACCUCCAAUGCAUCCCACCACAUGAUGAUGCCUGAAGAGACUUGGUUUUUUG	-0.578
GACCAAUCUGCCCUCAGAGCUCGAGAACAUCUUCGGAUGCAGAGGAGGCAGGCUUCGGUGCCGCGAUAGCGCCAACGCCCUCAACCUCCAAUGCAUCCCACCACAUGAUGAUGCCUGAAGAGCCUUGGUUUUAUG	-3.51
GACCAAUCUGCCCUCAGAGCUCGAGAACAUCUUCGGAUGCAGAGGAGGCAGGCUUCGGUGUCGCGAUAGCGCCAACGUCCUCAACCUCCAAUGCAUCCCACCACAUUAUGAUGCCUGAAGAGCCUUGGUUUUUUG	-4.51
GACCAAUCUGCCCUCAGAGCUCGAGAACAUCUUCGGAUGCAGAGGAGGCAGGCUUCGGUGUCGCGCUAGCGCCAACGUCCUCAACCUCCAAUGCAUCCCACCACAUGAUGAUGCCUGAAGAGCCUUGGUUUUUUG	-3.18
GACCAAUCUGCCCUCAGAGCUCGAGAACAUCUUCGGAUGCAGAGGAGGCAGGCUUCGGUGUCGCGAUAGCGCCAACGUCCUCAACCUCCAAUGCAUCCCACCACAUGAUGAUGCCUGAAGAGUCUUGGUUUUUUG	1.8
GACCAAUCUGCCCUCAGAGCUCGAGAACAUCUUCGGAUGCAGAGGAGGCAGGCUUCGGUGUCGCGAUAGGGCCAACGUCCUCAACCUCCAAUGCAUCCCACCACAUGAUGAUGCCUGAAGAGCCUUGGUUUUUUG	-4.08
GACCAAUCUGCCCUCAGAGCUCGAGAACAUCUUCGGAUGCAGAGGAGGCAGGCUUCGGUGCCGCGAUAGCGCCAACGACCUCAACCUCCAAUACAACCCACCACAUGAUGAUGCCUGAAGAGCCUUGGUUUUUUG	-1.93
GACCAAUCUGCCCUCAGAGCUCGAGAACAUCUUCGGAUGCAGAGGAGGCAGGCUUCGGUGUCGCGAUAGCGCCAACGUCCUCAACGUCCAAUGCAUCCCACCACAUGAUGAUGCCUGAAGAGCCUUGGUUUUUUG	-1.55
GACCAAUCUGCCCUCAGAGCUCGAGAACAUCUUCGGAUGCAGAGGAGGCAGGCUUCGGUGUCGCGAUAGCGCCAACGUCCUCAACCUCCAGUACAUCCCACCACUUGAUGAUGCCUUAAGAGCCUUGGUUUUUUG	-6.5
GACCAAUCUGCCCUCAGAGCUCGAGAACAUCUUCGGAUGCAGAGGAGGCAGGCUUCGGUGUCGCGAUAGCGCCAACGUACUCAACCUCCAAUGCAUCCCACCAUAUGAUGAUGCCUGAAGAGCCUUGGUUUUUUG	-0.851
GACCAAUCUGCCCUCAGAGCUCGAGAACAUCUUCGGAUGCAGAGGAGGCAGGCUUCGGUGUCGCGCUAGCGCCAACGUCCUCAACCUCCAAUGCAUCCCACCACAUGAUGAUGACUGAAGAGCCUUGGUUUUUUG	-2.88
GACCAAUCUGCCCUCAGAGCUCGAGAACAUCUUCGGAUGCAGAGGAGGCAGGCUUCGGUGCCGCGAUAGCGCCAACGUCCUCAACCUCCAAUGCAUCCCACCACAUGAUGAUGCCUAAAGAGCCUUGGUUUUUUG	-2.2
GACCAAUCUGCCCUCAGAGCUCGAGAACAUCUUCGGAUGCAGAGGAGGCAGGCUUCGGUGCCGCGAUAGCGCCAACGUCCUCAACCUUCCAUGCAUCCCACCACAUGAUUAUGCCUGAAGAGCCUUGGUUUUUUG	-5.87
GACCAAUCUGCCCUCAGAGCUCGAGAACAUCUUCGGAUGCAGAGGAGGCAGGCUUCGGUGUCGCGAUAGCGCCAACGUCCUCAACCUCCAAUGCAUCCCACCACAUGAUGAUGCCUGAAGAGCAUUGGUUUUUUG	1.54
GACCAAUCUGCCCUCAGAGCUCGAGAACAUCUUCGGAUGCAGAGGAGGCAGGCUUCGGUGUCGCGAUAGCGCCAGCGUCCUGAACCUCCAAUGCAUCCCCCCACAUGAUGAUUCCUGAAGAGCCUUGGUUUUUUG	-5.51
GACCAAUCUGCCCUCAGAGCUCGAGAACAUCUUCGGAUGCAGAGGAGGCAGGCUUCGGUGUCGCGAUAGCGCCAACGUCCUCAACCUCCAAUGCAUCCCACCACAUGAUGAUGACUGAAGAGCCUUGGUUUUUUG	-1.12
GACCAAUCUGCCCUCAGAGCUCGAGAACAUCUUCGGAUGCAGAGGAGGCAGGCUUCGGUGCCGCGAUAGCGCCAACGUCCUCAACCUCCAAUGCAUCCCACCACAUGAUGAUGCCUGAAGAACCUUGGUUUUUUG	-2.5
GACCAAUCUGCCCUCAGAGCUCGAGAACAUCUUCGGAUGCAGAGGAGGCAGGCUUCGGUGCCGCGAUAGCGCCAACGUCCUCAACCUCCAAUGCAUCCCACCACAUGAUGAUGACUGAAGAGCCUUGGUUUUUUG	-2.18
GACCAAUCUGCCCUCAGAGCUCGAGAACAUCUUCGGAUGCAGAGGAGGCAGGCUUCGGUGCCGCGAUAGCGCCAACGGCCUCAACCUCCAAUGCAUCCCACCACAUGAUGAUGCCUGAAGAGCCUUGGUUUUUUG	-4.7
GACCAAUCUGCCCUCAGAGCUCGAGAACAUCUUCGGAUGCAGAGGAGGCAGGCUUCGGUGUCGCGAUAGCGCCAACGUCCUCAACCUCCAAUGCAUCCCACCGCAUGAUGAUGCCUGAAGAGCCUUGGUUUUUUG	-4.75
